Measured values as given in the DeepSol protein solubility set.

Experiment: soluble on expression in E. coli; label from the status in PepcDB or PDB records

Row | Sequence | soluble on expression in E. coli
1 | MPQNAQEYYEKVKKFTKKKDGAIRAIEDTKKAMEKKAATKSAKAGRKLQASRKKHWYDRFRWFVSSDGFLVVGGRDADTNEEIFKKYMEKRDIVFHTQTPGAPLTVVKTGGKEVPDSTLQEVSQFAVSYSSLWKAGQFSGDCYWIKSEQVTKTPESGEYLKKGAFVIRGERNYFKDVPLGIAVGLELKGETRIIGGPASAVRKHGDYILEIIPGKFNQNDISKKIYRIYADELNDPRFVKQIASPDQIAMMIPAGESDLRNQKPEKKGQGFGPEGEGYETPEMEAGFEDLKGEIDEESGENAGEEFADEEFAEEIGEGSEVKVKAEAREGNEEIIEIRGVKKE | not soluble
2 | MPQVQSWFPVQKQPTLAVTFTPLPQLSHAHLPLPPSHLVTKTDAMFQHQLLPTQLQPFPPNHTPLLLLLTVTTMAVTPRLSLLNVLKKLQQPPFLQNHTLLLPLLTVTTTAVTPRLSLPRLPNKHHWPLAQSPSLLLQLLILLLPAPSLVLSFNPKVWLLV | not soluble
3 | MPRKRSVALAAWGEEGLLLVLRPQDDPEFPGAWGLPAVSLQGEETLEEAALRVAREKLGAEVAEAGPIAFGVEERPGYTLELWVYEGRLLGRPRLPEPKPGKTYYAAFRFGRPEELKAAARQGSLCSRLFLAVKGLCP | soluble
4 | MPRLDLCAKRTTDQCTSRVRLATRKGLTKLLLCSRESSIFKDEDIEQDDLRSSRTPWAALPPPPIKPIADSFRCDALVIGAGITGALVAERLTRQGRQVVIIDRELPSLGSTVASTAMLLWETDRPLFELAQLYNFEKAVRCYRASHHAARGLLALVTDHGIACQMRPRLSLYLAVDDSPKLVRNEYALRSRADLPTLFLDRVELLNRFGIARAGALLSRDAADADPVRLTRGLLDVSLQRGARLLKANAVAYDSAASTVTVGLENGLSIEARHVVLATGYVMPNIVGSTSNQPASSWAIATRRRPNALWPEQALIWEATRNYHYARTTPDGRVIFGGEDDDAIIDPEARAAATPAKVRALKERLKALWPRASTEVAFTWSGAFDTTRDGLPLIGAVPGYRNILAAFGYGGNGITFSFLAAELLGTLLSGGSSPLLDVLALDRDLPANDAPSDSQALEHHHHHH | soluble
5 | MPRPRVLLLGDPARHLDDLWSDFQQKFEVIPANLTTHDGFKQALREKRYGDFEAIIKLAVENGTESYPWNADLISHLPSSLKVFAAAGAGFDWLDLDALNERGVAFANSRGAGDTATSDLALYLILSVFRLASYSERAARTGDPETFNRVHLEIGKSAHNPRGHVLGAVGLGAIQKEIARKAVHGLGMKLVYYDVAPADAETEKALGAERVDSLEELARRSDCVSVSVPYMKLTHHLIDEAFFAAMKPGSRIVNTARGPVISQDALIAALKSGKLLSAGLDVHEFEPQVSKELIEMKHVTLTTHIGGVAIETFHEFERLTMTNIDRFLLQGKPLLTPAGKVFAPSSAA | soluble
6 | MPRRHSIVYAVEYDGDIYAITGITHETRNYLYKYIVKEDKWIELYMYFNHVGKTFVCSCGDYILIIADAKYEYYPKSNTWNLFDMSTRNIEYYDMFTKDETPKCN | not soluble
7 | MPRYCIVNADDFGYSKGVNYGILEAFQHGVVTSATLMANMPAAEHAARLAKEHPELGVGIHFVLTCGRPLADVPSLVNENGEFPRRGEALAGARRSDIERELAAQLERVFSLGLSPTHIDSHHHVHEHPNVFPVVEQLAERYRLPIRPVRTTRPHRLATVDVFFPDFYGDGLTKDHFLTLIDRIGDGQTAEVMCHPAYMDAPLAAGSSYCRQRIEELAVLTDPALSKEIAERGVQLITYREFYQL | not soluble
8 | MPSDAPIDFTGLIRASDLVVCGQATAEPLTLTEALMAQAADLPPFRLMVGPVFSDTFAAAPPNVSFVSYGVIGHARKLARAGRLDVIPSNYSAFCADFAAGRHRADVVLVQLAEAPDGRLSASLSCDYVIDAARRARLVIAEINPDAPFTYGAEWPGEVPIHIRVAARRKPVELPSGALDDVSRKIAANAAGLIADGATLQFGVGKIPDAILSSLVHARDLGIHSGLINDAVVELIERGVVTNARKGIDPGVTVTNQLIGTQRLYRFAHQNRSVRMQPAAYTHDHGVLGRINRLTAINSALQVGLDGSVNAETLNGVAIGAIGGQLDFVRGANASPGGRALIALPATAPDGSSRIVARVETVTTPRADVDVIVTEWGVAELRGCSLAERARQMIAIAAPEHRDRLAEQARTIALEHHHHHH | not soluble
9 | MPSDLIPLIELHQVSKTFGKPVAEHSLQGLLQRLHLTRPKPVTHAVDRVDLRIMRGEVVGLVGESGCGKSTLGRMVAGLLPVSSGVASVDGKPLDSLTTQERKALRLKVQMIFQDPSSSLNPRLRVDRIVGEGALLHGLTDRKGADDYVSAQLQRAGLNPQLRQRYPHQFSGGQRQRIGIARALAVQPELLVCDESVAALDVSIQAQILNLFMDLRDELGLTYLFISHDLGVVEHLCDRVVVMYLGRVVETASVDDLFARANHPYTQALLAQIPRFDIRSTRYDAIQGEIPSPLNPPTGCHFHPRCPHAMARCREEVPALREVSPNHQSACHLNDQR | not soluble
10 | MPSFDIVSEITLHEVRNAVENANRVLSTRYDFRGVEAVIELNEKNETIKITTESDFQLEQLIEILIGSCIKRGIEHSSLDIPAESEHHGKLYSKEIKLKQGIETEMAKKITKLVKDSKIKVQTQIQGEQVRVTGKSRDDLQAVIQLVKSAELGQPFQFNNFRD | soluble
11 | MPSKQDVLLLDYWDQWAEAYRINGKSINTVYRYKLFRKHLKSRFDGRKLNSIRPIEWQKFINDFAAGKDRKEKTTRKRPRERSKDIVTKMNSYVRGMVKAAINERILFSDFTFGTKTSGVRLEHHHHHH | not soluble
12 | MPSRAEDYEVLYTIGTGSYGRCQKIRRKSDGKILVWKELDYGSMTEAEKQMLVSEVNLLRELKHPNIVRYYDRIIDRTNTTLYIVMEYCEGGDLASVITKGTKERQYLDEEFVLRVMTQLTLALKECHRRSDGGHTVLHRDLKPANVFLDGKQNVKLGDFGLARILNHDTSFAKTFVGTPYYMSPEQMNRMSYNEKSDIWSLGCLLYELCALMPPFTAFSQKELAGKIREGKFRRIPYRYSDELNEIITRMLNLKDYHRPSVEEILENPLIADLVADEQRRNLERRGRQLGEPEKSQDSSPVLSELKLKEIQLQERERALKAREKRLEQKEQELCVRERLAEDKLARAENLLKSYSLLKERKFLSLASNPELLNLPSSVIKKKVHFSGESKENIMRSENSESQLTSKSKCKDLKKRLHAAQLRAQALSDIEKNYQLKSRQILGMR | soluble
13 | MPTPAYMRIEGEKQGLITAGTFTEDSVGNIYQEGHEDEVLVQGFEHQVLLPRDPQSGQPTGQRVHKPVRITKVFDKASPLMYNALTSGEKLPKVEIKWYRTSATGTQEHYFTTVLHDAIIVDITASMPNCQDPSQAHFTHLEDVFMTYRAIDWTHEVAGTSGNDDWRTAMKA | soluble
14 | MPTTRHYDIVIIGGGIQGAAVAQAAAALGYNVLVLEKTALAAGTSSRSSKLIHGGLRYLESGQFGLVWESLKERAALLRLAPSLVRLQPFHIPIYDQTSRDTLTIRAGLSLYALLAGLSKGAGFHSIPRRRWGELDGLSTRGLRHVFQYWDAQTDDQALTRAIMHSASSLGVELHCPAEFIHARISGEICEIEFLENNQAYQCTASSLVNAAGPWVSQVAERISPAPPAYPVELVQGTHLILEGSLDKGCYYLESPQDRRAIFALPWKQHILLGTTETVFEGAPDKALPLVSEENYLLGCFRYYFPDHGATVRERFTGLRVLPVSRNNPFGRSRETHLQCDSPESPRIVGIYGGKLTVCRATARKVLHTLRPSLPVRIPKADISQLTLKLPLEHHHHHH | soluble
15 | MPVGRREQIVDCRSVMGLGEGGGLAQRGTFAEALKNDVVVVAMSPGRRHITKPVCEITYGIREAGIQTSVLVLNAGSGIPHDAPRGALGSTFGIKPEEAEQINRHKLCVVHFGNVISHIVYKAGLLLKYVEIPTIIVCQAPVDMEDLAKYGIKTRDVMPLEPKTKGTVVDIVTGVIRGESCPQTKIDEVIRKIKLHLNLNLEHHHHHH | soluble
16 | MPVPDLFAEGLARGWKTYNGSRLDDDLELEADVVVVGTGAGGGTTAEILSAAGLKVLLVEEGPLKTSSDFKMQEADAYPELYQEGIGRMSKDGAITILQGRAVGGTTLINWTSSFRTPEPTLQHWAQVYGVKGHSAEDMAPWFEKMEQRLHVAPWALPPNANNDVIRLGCEKLGYHWKVIPRNVLGCWNLGYCGMGCPVNAKQSMLVTTIPATLDKGGELLYLARANRLLLDGDKVTGLECLGMDERCVAPNGRRIRVRARHYVLSGGGINTPAILLRSKAPDPSQRVGKRTFLHTVNFSAGLFDRVINPFYGAPQSIYSDHFQWDDGVTGRMSYKLEVPPLQPSLASVLLGGFGSDNALRMEQLPHTNMMLALLRDGFHPDSAEGSVGLRGDDTPVLDYRMTDYTWDGIRRAFHTMAEIQFAAGAREVRPVHSDARSAKNLQEARGIIDGLRLEIYRTRLGSAHVMGGCAMGEDPAVAVADSLGRHHHLRNLSIHDGSLFPTSIGANPQLSVYGLTAQLASALAERLARALEHHHHHH | not soluble
17 | MPVSPEREQALSEFVAAVQAREDVQSELNEITTLDQLKTIVDSIEPALTGAALIPFEQATSPPKITVDSGVLDKNIPWRLLRCPGGPLVLQMICTRVNFALWIESC | not soluble
18 | MPVTLSFGNHQNYTLNESRLAHLLSADKEKAIHMGGWDKVQDHFRAEKKDHALEVLHSIIHGQGRGEPGEMEVNVEDINKIYAFKRLQHLACPAHQDLFTIKMDASQTQFLLMVGDTVISQSNIKDILNISDDAVIESMSREERQLFLQICEVIGSKMTWHPELLQESISTLRKEVTGNAQIKTAVYEMMRPAEAPDHPLVEWQDSLTADEKSMLACINAGNFEPTTQFCKIGYQEVQGEVAFSMMHPCISYLLHSYSPFSEFKPTNSGFLKKLNQDYNDYHAKKMFIDVILEKLYLTHERSLHIGKDGCSRNILLT | not soluble
19 | MPVVERTTFLAGYSPQQVLDFCLEGANFPKIFPERVTPLGGLDINDLRISVGRQFSFLHWMFGVIPAKWTVVIREVGDRHFVDEMLKGPLRAFRHEHRVEAAEGGTLYTDRVTYRAIGGAPLEWLMVNAYMARIFDARHRNMLRLLSLEHHHHHH | soluble
20 | MPWKCYRDYNLESQILKYRTTADVIMKSMYKLEIESLKRELAEYRRGNNGSHSDCKYYDEEAREEVS | not soluble
21 | MPYAIDFGTTNTVIARWNEATRQGNLIDLPSLSHPLGDSGPLVPSLLYVENAALGQVAIAREVLDRGRDISTDTRFFKNFKRGIGVAVQGFLPQLDGHTLSLETLGQWYLDKLIRILTEQEGQGPDCLALTVPVDSFESYRHWLSHTCRSWGVEEVRLVDEPTAAALGYGVGDASQILVLDFGGGTVDFSWVQLGDRGQKGRSGFLLKWGGILGGSKAEEKSALAKVLAKAGANLGGSDIDYWISEYFTEAQGLQVSPWIRRLAERLKIALGEAEEATEVYFDDQALESYEFQLRRSDLTEILQQRQFFERLTALWEQVQQTAQRRGLTPANLDAVLVVGGTSQLPMVQDWINAQFPAGKIRNQQPFGAIALGALQIYQGREVQDYLYHSYGVRYWNRRKNSHNWHPIIKNGQTYPMAEPIELTLGASLDNQPSIELIVGELGSSIGATEVYFDGNQLITRVLENQAFTVQPLNDRNGARQIAQLSPPGVPGGDRIKVKFWVDDQRYLRLTVEDLLQQKLLLENQVVAQLRLEHHHHHH | not soluble
22 | MPYEMKFKGVYVLAMEDNSSFKGKIEVGDTVTGVDGKSFKSSEELMNYIKAQKVNQKVTVQFIQDGKAKEATGKLIELPTDKKAGIGIGLTDHTLEHHHHHH | soluble
